The values that follow come from publication doi:10.1101/2020.02.18.954917 (bioRxiv, 2020).

This data set concerns the molecule itself. In words: SEC + AUC.

B1: ΔNterm-Them1 (Mus musculus Thioesterase superfamily member 1, thioesterase domains and START domain, residues 43-594) (enzyme, UniProt Q8VHQ9 43-594, looked up)
chain: YRNPTEVQMSQLVLPCHTNHRGELSIGQLLKWIDTTACLSAERHAGCPCVTASMDDIYFDHTISVGQVVNIKAKVNRAFNSSMEVGIQVVSEDLCSEKQWSVCKALATFVAHRELSKVKLKQVIPLTEEEKTEHGVAAERRRMRLVYADTIKDLLTHCVIQDDLDKDCSNMVPAEKTRVESVELVLPPHANHQGNTFGGQIMAWMENVATIAASRLCHAHPTLKAIEMFHFRGPSQVGDRLVLKAIVNNAFKHSMEVGVCVEAYRQEAETQRRHINSAFMTFVVLDKDDQPQKLPWIRPQPGEGERRYREASARKKIRLDRKYLVSCKQAEVALSVPWDPSNQVYLSYYNVSSLKTLMAKDNWVLSVEISEVRLYILEEDFLSFHLEMVVNVDAAQVFQLLSDLRRRPEWDKHYRSVELVQQVDEDDAIYHVISPALSGNTKPQDFVILASRRKPCDNGDPYVIALRSVTLPTHHETPEYQRGETLCSGFCLWREGDQMTKVSYYNQATPGFLNYVTTNVSGLSSEFYNTFKACESFLLDNRNDLAPSLQTL
A word on the stoichiometry N: it is the number of molecules, sites or subunits per partner or assembly. Take B1: the “stoichiometry N” value stood at 3.
